{"source": "patent US20150376238A1", "about": "(University of Washington, published 2015)", "binders": {"B1": {"name": "52alt1-3 (designed binder)", "chain": "GIVNVPNPNTTKYQQLARSAIAIYNNHQNAHLEFVENLNVKEQVSYGAMYYITLAATDDAGKKKIYKAKVGVVESAGWVGVEEFKLV"}}, "key": {"[1]": {"biological_target": "H1 hemagglutinin (A/South Carolina/1/1918) (Influenza A virus A/South …, UniProt Q9WFX3 18-520)", "sequence (Q9WFX3 18-520 limits assumed)": "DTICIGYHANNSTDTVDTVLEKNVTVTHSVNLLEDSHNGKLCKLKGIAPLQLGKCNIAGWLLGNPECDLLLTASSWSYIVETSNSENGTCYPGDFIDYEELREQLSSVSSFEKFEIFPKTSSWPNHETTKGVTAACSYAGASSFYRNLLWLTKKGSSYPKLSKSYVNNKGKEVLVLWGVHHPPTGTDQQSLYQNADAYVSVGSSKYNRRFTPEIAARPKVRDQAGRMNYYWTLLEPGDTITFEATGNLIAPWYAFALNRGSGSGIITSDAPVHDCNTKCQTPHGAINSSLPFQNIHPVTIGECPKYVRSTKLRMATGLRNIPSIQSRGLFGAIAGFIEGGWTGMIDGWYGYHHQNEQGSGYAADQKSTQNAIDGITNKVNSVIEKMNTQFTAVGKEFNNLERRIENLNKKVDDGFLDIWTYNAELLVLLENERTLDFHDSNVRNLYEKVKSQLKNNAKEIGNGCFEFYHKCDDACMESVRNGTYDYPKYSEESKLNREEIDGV", "assay": "yeast surface display titration"}, "[2]": {"biological_target": "H3 hemagglutinin (A/Hong Kong/1/1968) (Influenza A virus A/Hong Kong/1/1968 …, UniProt Q91MA7 27-521)", "sequence (Q91MA7 27-521 limits assumed)": "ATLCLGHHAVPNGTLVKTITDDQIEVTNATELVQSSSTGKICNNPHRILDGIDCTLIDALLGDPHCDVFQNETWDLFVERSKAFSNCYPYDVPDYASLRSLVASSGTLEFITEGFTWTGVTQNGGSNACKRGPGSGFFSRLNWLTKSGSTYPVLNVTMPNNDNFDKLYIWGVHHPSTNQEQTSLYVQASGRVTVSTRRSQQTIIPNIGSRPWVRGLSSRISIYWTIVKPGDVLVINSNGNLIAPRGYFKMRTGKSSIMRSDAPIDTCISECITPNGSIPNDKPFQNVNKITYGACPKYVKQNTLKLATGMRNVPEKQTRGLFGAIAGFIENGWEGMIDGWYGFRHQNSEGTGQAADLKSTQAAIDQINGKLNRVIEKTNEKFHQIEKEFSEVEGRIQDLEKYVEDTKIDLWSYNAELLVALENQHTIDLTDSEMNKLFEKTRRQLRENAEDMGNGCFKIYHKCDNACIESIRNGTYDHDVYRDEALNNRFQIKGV", "assay": "yeast surface display titration"}}}
{"binder": "B1", "values": [{"measurement": "binding result", "setting": "[1]", "result": "no binding"}, {"measurement": "Kd", "setting": "[2]", "result": 3, "unit": "nM"}]}
